{"source": "patent US20260055200A1", "about": "“COMBINATION THERAPIES” (Alligator Bioscience AB, priority 2022, published 2026)", "molecules": {"B1": {"name": "Mitazalimab: agonistic, human monoclonal (IgG1) antibody targeting CD40 (antibody, chains of the INN, looked up, V domains shown)", "VH": "EVQLLESGGGLVQPGGSLRLSCAASGFTFSTYGMHWVRQAPGKGLEWLSYISGGSSYIFYADSVRGRFTISRDNSENALYLQMNSLRAEDTAVYYCARILRGGSGMDLWGQGTLVTVSS", "VL": "QSVLTQPPSASGTPGQRVTISCTGSSSNIGAGYNVYWYQQLPGTAPKLLIYGNINRPSGVPDRFSGSKSGTSASLAISGLRSEDEADYYCAAWDKSISGLVFGGGTKLTVL"}}, "key": {"[1]": {"system": "MB49-FFX-ACQ bladder carcinoma cells", "test": "Chemotherapy-resistant MB49-FFX-ACQ tumour model in hCD40tg mice", "format": "in vivo, mouse", "conditions": "FIG. 7B/7C", "method": "Note: All mice were dosed with flat doses and mg/kg doses reported herein are based on an average mouse weight of 20 g (0.02 kg).\nAs FOLFIRINOX is composed of four individual components, it was dosed over the course of two days, for a total of three cycles. Mice first received oxaliplatin followed by irinotecan, followed the day after by folinic acid and 2 hours after that, mice were dosed with 5-fluorouracil.\nThree days following the initiation of the dosing of FOLFIRINOX, mitazalimab was administered in 5% glucose (dextrose buffer) at 5 mg/kg.\nThe dosing regimen applied in the two efficacy studies detailing number of doses and their relation to one another is outlined in FIG. 5. […]\nOn day 0, ten- to twelve-week-old female hCD40tg mice were injected subcutaneously on the right hind flank with 0.4×10^6 MB49-FOLFIRINOX-ACQ in a volume of 100 μl PBS. […] Controls or antibodies were administered as outlined in Table 24, and mice were monitored shortly following each treatment to detect potential signs of toxicity. Tumor volume was measured three times weekly with a calliper and calculated as: ((width/2×length/2×height/2)×[…]). […]\nCollected data was analyzed using Kaplan Meier and Log-rank (Mantel-Cox) for survival and Mann-Whitney, non-parametric, 2-tail for FACS data and tumor growth using GraphPad Prism program (*, p<0.05; **, p<0.01). […]"}, "[2]": {"system": "CD40-mediated immune cell activation", "conditions": "cited from earlier work"}, "[3]": {"system": "IFN-γ, MCP-1, B cell margination, B cell activation", "test": "OPTIMIZE-1 peripheral blood pharmacodynamics (cytokines/chemokines, immunophenotyping)", "format": "in vivo, human", "conditions": "450 and 900 μg/kg mitazalimab", "text": "The aim with the pharmacodynamic biomarkers is to characterize changes in intratumoural and systemic immune activation associated with mode of action of mitazalimab and correlate pharmacodynamic effects with clinical response. Disease progression and treatment response will also be followed with liquid biopsies, analysing biomarkers such as Carbohydrate antigen 19-9 (CA19-9) and circulating tumour DNA (ctDNA). All biomarker analyses in blood and tumour biopsies may be exploratory in nature. All exploratory analyses were performed at a fit-for-purpose laboratory, as the data from the analyses are for scientific use and decision making only. […]\nDifferent types of blood samples will be taken and the following pharmacodynamic biomarkers may be evaluated: • Cytokines and chemokines: Serum samples are to be analysed for levels of cytokines and chemokines involved in the immune activation of mitazalimab, including but not limited to IFN-γ, TNF-α, IL12p70, IL-6, MCP-1, IP-10, MIP-1α, MIP-1β and IL-8; e.g., using a 30-plex kit with Luminex, MSD or similar. • Immune phenotyping: Whole blood samples will be used for immunophenotyping of whole blood for quantification of immune cell populations and immune cell activation directly or indirectly involved with immune activation of mitazalimab using flow cytometry. […]"}, "CD40": {"biological_target": "T1, CD40 (Homo sapiens, UniProt P25942)", "T1 construct": "validated in vitro in human monocyte-derived DC cultures; endogenous in cells; host or cells: human monocyte-derived dendritic cells", "T1 sequence (P25942 21-277)": "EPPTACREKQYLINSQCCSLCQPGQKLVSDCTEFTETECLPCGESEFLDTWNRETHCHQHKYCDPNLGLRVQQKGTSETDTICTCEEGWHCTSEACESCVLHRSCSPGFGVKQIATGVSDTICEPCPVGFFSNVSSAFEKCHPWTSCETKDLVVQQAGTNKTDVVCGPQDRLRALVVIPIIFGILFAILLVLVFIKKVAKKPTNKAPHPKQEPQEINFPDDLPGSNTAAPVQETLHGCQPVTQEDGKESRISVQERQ", "conditions": "human monocyte-derived DC cultures; cited from earlier work"}}, "data": [{"molecule": "B1", "values": [{"measurement": "effect on tumour growth in chemo-resistant tumours", "setting": "[1]", "result": "synergises with FOLFIRINOX"}, {"measurement": "NK cells and T cells in peripheral blood after infusion", "setting": "[2]; all doses except 75 μg/kg", "result": "decreased"}, {"measurement": "B cells in peripheral blood after IV administration", "setting": "[2]; all doses tested, dose-dependent recovery", "result": "margination of B cells was observed"}, {"measurement": "time of peak of peripheral MCP-1, IP-10 and MIP-1B chemokines post-infusion", "setting": "[2]; in vivo, ip", "result": "1 to 4", "unit": "h"}, {"measurement": "CD40 receptor occupancy on B cells", "setting": "[2]; in vivo", "result": "dose dependent"}, {"measurement": "IL-6 levels following infusion", "setting": "[2]; in vivo", "result": "not elevated"}, {"measurement": "duration of CD40 engagement post administration", "setting": "[2]; in vivo", "result": "through Day 8"}, {"measurement": "recovery of NK cell and T cell levels", "setting": "[2]; in vivo", "result": "fully recovered by study Day 8"}, {"measurement": "cytokines and chemokines (IFN-γ, MCP-1) in peripheral blood", "setting": "[3]", "result": "increases in peripheral blood were observed"}, {"measurement": "activation markers (CD80, CD86) on DCs and release of IL-12", "setting": "CD40", "result": "up-regulation of activation markers on the surface of DCs"}]}]}
